Experimental data: the DeepSol protein solubility set

Assay: soluble on expression in E. coli; label from the status in PepcDB or PDB records

Row | Sequence | soluble on expression in E. coli
1 | MSAPVQCPIHPDVHLIEDHRAGDLVCPACGLVVGDRLVDVGTEWRSFSNERSGNDPSRVGAPENPLLSGGDLSTTIAVGFGGSDSDNSLANAQRKSMNNTDRQMTAAMSLIREMSERIHLPRNIQDSASRIFKDVLESKALRGKNNEAQAAACLYIACRKDGVPRTFKEICAVSRVSKKEIGRCFKIIVRSLETNLEQITSADFMSRFCGNLSLPNSIQAAATRIAKCAVDMDLVAGRTPISIAAAAIYMASQASAEKRSAKEIGDVAGAAEITVRQTYKLLYPKALELFPKDFRFVTPIDALPNS | not soluble
2 | MKPRGICFFDMDGTLLNSESKVLDTSLQALDKLRENNVIPVIATGRTLIEISHQMKITGIESAVMMNGQMAIFEGEKVYEDVIDADLLDRLTEEAKSQNVEVCYYNDKRIGATASTPVVKAHYDFLGEPMPKVRPNMYKEETINMALLLLETGDDYFPERFPELQFVRNTPFSNDVLRKGGSKAVGISKLLEVMGYQDVPTYAFGDGMNDLEMFGAVDYAIAMENAVPLLKEKADFVTKDNNSDGIMLGLKQFDLI | not soluble
3 | MRIVQATLEHLDLLAPLFVKYREFYGMLSYPESSRKFLEKRLRRKESVIYLALADEEDRLLGFCQLYPSFSSLSLKRVWILNDIYVAEEARRQLVADHLLQHAKQMARETHAVRMRVSTSVDNEVAQKVYESIGFREDQEFKNYTLPISDELS | soluble
4 | MSLGTSYSEGVSSIHMVKGERGSNNLELTSESLSSTNDTIRRLQRDLLFLQNELRFEKFVRQQHLQNIGKLHREHILDMAVESERQKLLLTNKRYKAQIELLNSEIDKHRSESQAALNRRVKWENDFNNKIKALREEKKAWKSEESELKSSIESLISQLESIRNSQIDIAFSKNQLELKLQLYETKLKEYEQHLSCVNISKKQVSSSSDTSFGNTKMDSSMILSNSEAVSDEQERELIESEKHRMKLESENLHLQANIELLKKDLEAINVVYEAKIFDLEKRLSSEANAPELHNPVNLNYDAQLSKISEIKENYDELLTRYRELEGKFLESQAEVEELKNFQKPLVDTGSSIHSSPGLQEGHHHHHH | soluble
5 | VRQLLGLEGPIKRVECFDISHTMGEATVASCVVFDAVGPVRSQYRRYNITGITPGDDYAAMRQAIERRFRRAVEEDKQGERPDVLFIDGGAGQLAQAKMALNAVGVESVLLVGVSKGEERRAGHETLIMLDGQELHPGAASPALQFIQQVRDEAHRFAI | not soluble
6 | MGSDKIHHHHHHMPPRPFDEMTNPDGGIRSPYGLYSDWVNQTPLDVLRQKHAQADVLFRRIGITFAVYGDNQGGERLIPFDVVPRIISKKEWDILSRGVCQRVDALNRFIYDVYHDQEILKAGKVPKGLVRNNGQFRKEMVGFTPPRNLYVQIAGIDIVRTAENEFHVLEDNLRTPSGVSYMLENRDVMTRLFPELFNRHPVAPVNHYAQELLKTLQYSAPDHADNPTVVVLTPGQYNSAYFEHAFLADEMGIELVQGQDLFVEGGHVYMRTIAGPQRVDVIYRRIDDDFLDPLAFRKDSMLGVPGLFEAYRSGAVTLANAIGTGIADDKAIYDFVPGMIEFYLGEKPILRNVPTYHLDDDDDRAYVLEHLAELVVKEVHGSGGYGMLVGPRASRQQISDYRDRILADPANFIAQPTLALSTCPTFVDQGLAPRHVDLRPFVLAGKTTQVVPGGLTRVALEKDSLVVNSSQGGGTKDTWVLER | not soluble
7 | MASDMPLVQLPQRGERINVPLVQSRSEDQRLVTSARQTDKIDADDLVALANQLNSARQLVKGRACDRLKQIADQMEQLHMAARAVLEDAQRDEHLHNVPCNMEKQPGRIYHLYQKQGSMNKYFSMLAPNEWGYQEKKEEYLGSYRLEYDRSWTPVGEMDRKDEEVARLQQLLQREGPVALRGNPNF | not soluble
8 | MGSDKIHHHHHHMRIGVAGVGKLGEFHTNLLKQIAAEASDVEFSGVFDLNPERLQEIGKKYGVACFSTLEELAASCDAAVIATTTSSHYAIARQLLEARLHLFIEKPITATLEEADKLIRIEQEKGLTIQVGHIERFNPALLAVEPYIGEPMYIQAERLSGFSRRVTDVSVVLDLMIHDIDLVLSLIKSDIRSIAASGVKVFSNELDMATARIEFENGAIANVTASRLSRSKLRKMRFFTRNPKSYASLDFTSGKSEVFRLVPPDQLSSKNPIKNFATKKILEQFGEIQESLKEMALDYVSPDVPKINALKEELEQFIDAIRKGKPAKVTSEEGRRALMVAGKITDEIRNNTADLD | not soluble
9 | MLRIYAPASSANISVGFDTLGAAISPIDGSLLGDVVQIESISTGFELESAGYFVRKLPKEPQKNIVYQAYVLFSEQLKLRGANVKPLRLTLEKNMPIGSGLGSSACSIVAALVALNQFHNEPFSKMELLEMMGELEGRISGSIHYDNVAPCYLGGVQFMVQS | not soluble
10 | MENPINELAAAVHDGLGLTYPPIIDMGPQLTREQLLASMSATMRRHKGGPVWLFAYGSLIWRPECTAVESQRGRVHGYHRGLYLWSHEHRGTPEVPGLVFGLDRGGSCTGFAYRLPDDCLEKSLLALWEREMPYPSYRPHWLNCRLEDGRKVQALGFVLERHLPSYAGNLPDSVLSQVLASASGRYGTTRDYVEQTAKALRSHAMPDLNLEARLKRCKSETAAAALEHHHHHH | not soluble
11 | MGSDKIHHHHHHMKVVKFGGSSLATGNNVNKALNIIKNDSSRQVIVVSAPGKRTDDDIKVTDLLITYAYTSLRSNNYDDTVEKIFRRYELIAQYFDLPESDLTKIKRLLLTLPTYDYPNADYRMATFKAHGERLNAILIAKILNHQGIKTRYLEPKDVGLIVTGTPNNAEVNPETYVNLKRINLKNNEKIIFPGFYGITPSGHIATFSRGGSDITGAILARGFDAELYENFTDVDAIFSANPNIVTNPAPIKKMTYQEMRELSYAGFSVFHDEALIPAIQGEIPVNVKNTNDPEKPGTLIVPEDGFIPKHTITGIAGGKNFAALYLRKYMLNKGAGFTLKLMEIFDRHHVSYEHMPSGIDDLTIIFKKDALSDQLIDVICNEIQTSLNPDQMQWIDDYAITMVVGEGMKDKLTLCASILYPLGEKNISIQMINQGASQISIMIGTRRQDEEEVIKTIYQNFIENR | not soluble
12 | MGHHHHHHSHKVENFEAAVHFYGKAIELNPANAVYFCNRAAAYSKLGNYAGAVQDCERAICIDPAYSKAYGRMGLALSSLNKHVEAVAYYKKALELDPDNETYKSNLKIAELKLREAPSPTGGVGSFDIAGLLNNPGFMSMASNLMNNPQIQQLMSGMISGGNNPLGTPGTSPSQNDLASLIQAGQQFAQQMQQQNPELIEQLRSQIRSRTP | not soluble
13 | MFGVTLWEMFSGGEEPWAGVPPYLILQRLEDRARLPRPPLCSRALYSLALRCWAPHPADRPSFSHLEGLLQEAGPSEACCVRDVTEPGALRMETGDPITVIEGSPDSTIWKGQNGRTFKVGSFPASAVTLADAGGLPATRPVHRGTPARGDQHPGSIDGDRKKANLWDAPPARGQRRNMPLERMKGISRSLESVLSLGPRPTGGGSSPPEIRQARAVPQGPPGLPPRPPLSSSSPQPSQPSRERLPWPKRKPPHNHPMGMPGARKAAALSGGLLSDPELQRKIMEVELSVHGVTHQECQTALGATGGDVVSAIRNLKVDQLFHLSSRSRADCWRILEHYQWDLSAASRYVLARP | soluble
14 | MGSDKIHHHHHHMNALTWLTKHSQAVIFRKKLAGLTACSQMIELSTPLNDGQRKFIFRQQSARATLLAINYAQEAYILQHLDALPFTPKVYYQTANSSLLTWLEGKPATAFDPDLLEQLALQLATLHAYPLPKQRTILQLAERCQLLWDRLTPSQQHQLNFCPPFKKIEPLQLAICHHDLHLANLIQHQQQLFIIDWEYSAISDPVLEIALFFQANTLNSVQKQFFLTTYLSKINLNEPLFKQKMAEYTPAIQQLSQLWYALSEAIT | not soluble
15 | MGSDKIHHHHHHMAFVGFKKSGKTTTIEKVARVLKEKGYRVAIVKSMHSEFDRPGTDTWKFSRIADSVLVHAKDTDALLFKAKDINALFSMISSDVVLIEGFKSIKHVPKVICARSEDEVRELNDGLAIAVSGVIASQGVKEVDGLPVIDGTREPEKLAELVLKRGFMLPNIDCGLCGFNCEQMAKLIVKGEKSVNDCVVLSSRPKVIIKIDGQPLYLKDWVQELVEKTIKGMLSAMKGYREGKRIEIIING | not soluble
16 | MSLEAKRPEQTRVVVGMSGGVDSSVTALLLKEQGYDVIGIFMKNWDDTDENGVCTATEDYQDVVQVCNQLGIAYYAVNFEKEYWDKVFTYFLEEYKAGRTPNPDVMCNKEIKFKAFLNHALTLGADYVATGHYAQVKNVDGQYQLIRGKDPNKDQTYFLNALSQQQLSRVMFPLGHLEKKEVRAIAERAGLATAKKKDSTGICFIGKRDFKEFLSSYLPAQPGEMQTLDGEVKGTHDGLMYYTLGQRQGLGIGGSGEPWFVIGKNLEKNILYVGQGFHHPGLYSEGLRAIKVNWILRRESDEPFECTAKFRYRQPDQKVTVYPQSDGAVEVLFAEPQRAITPGQAVVFYDGDVCLGGGTIDHVLKKKEDRESAEGHHHHHH | soluble
17 | MHYCEPGWFELIRHRLAFFKDNAAPFKILFLADLHYSRFVPLSLISDAIALGIEQKPDLILLGGDYVLFDMSLNFSAFSDVLSPLAECAPTFACFGNHDRPVGTEKNHLIGETLKSAGITVLFNQATVIATPNRQFELVGTGDLWAGQCKPPPASEANLPRLVLAHNPDSKEVMRDEPWDLMLCGHTHGGQLRVPLVGEPFAPVEDKRYVAGLNAFGERHIYTTRGVGSLYGLRLNCRPEVTMLELVLEHHHHHH | not soluble
18 | MGSDKIHHHHHHMTSVTPCASSSSEMNDFLQAHPDTQYVDLLISDMNGVVRGKRIERASLHKVYEKGINLPASLFALDINGSTVESTGLGLDIGDADRICFPIPGTLSDEPWQKRPTAQLLMTMHELDGQPFFADPREVLRQVVSKFDDLGLTICAAFELEFYLIDQDNLNGRPQPPRSPISGKRPQSTQVYLIDDLDEYADCLQDMLEAAKEQGLPADAIVKESAPAQFEVNLHHVADPLKACDYAILLKRLIKNVAYDHEMDTTFMAKPYPGQAGNGLHVHISLLDKKTGKNIFASDDPLQSDTLRHAIGGVLETMPASMAFLCPNINSYRRFGAQFYVPNAPSWGLDNRTVAVRVPTDSSENVRLEHRVAGADANPYLMLAAILAGVHHGLTNKVEPEAPIEGNSYEQLEQSLPNNLRDALRALDDSEVLNQYISPDYIDIFVACKESELAEFEVSISDLEYNWYLHTV | not soluble
19 | MSLKTPAREIITDYAQAHFRYFRTADGTVYAQRNGHPVARPIRSQGTTGSHRQELMVGLFKDGIGVFNGTAMKEALDLIEALALTEDVQPVHIRVAPGFDGATWLDLGRDDGRSVRIHPTGWDIAIPDPREVCWRRTQLTGELPVPIKDTDGKGIDLLLRLCNFATAETECLAIAWLIGCLGPSVPVPAPFLTGPQGAGKSTGGRMLVRIIEGMTGDLRRAPKDEENLIAAVAAGWVTALDNLSHMTPDLSDAMCCIVTGAENVKRALFTDGDVFRARYRRPLLLTGIDVGVIRPDLAERLLPLRLERPKVRRTEAELWTEYAEVLPVVLGSLLDLAVKVRAVEVETPTDLRMADFAHLCAQLDAATGFGALAAYRAALDDLNDDVIEGDLLAQTVLRHAADLEPGTTQRMTSTEWLHCLSQLYTGEEFRPLPKGWPTTGKVLSDRLKRLQPTLAARGVLIDSGRTYEGRYLEMTRAPATEGHHHHHH | not soluble
20 | MSRKRTENGSESGPATSHVPVDRFGFLKQEHANSPERFSKSKTTSSTDHDREERKVRKWRKMIGVGGSDWKHYVRRKPNVVRRRIRKGIPDCLRGLVWQLISGSRDLLLMNPGVYEQLVIYETSASELDIIRDISRTFPSHVFFQKRHGPGQRSLYNVLKAYSVYDRDVGYVQGMGFIAGLLLLYMSEEDAFWLLVALLKGAVHAPMEGLYHAGLPLVQQYLFQLESLVKELIPKLGEHFTQEMINPSMYASQWFITVFSYSFPFPLALRIWDVFLSEGVKIVFKVGLALLKYCQDELVSKVTV | not soluble
